Measured values: patent US20150197558A1 (published 2015)

Experiments:
[1] = target: T1, IHF from Haemophilus influenzae (Haemophilus influenzae, UniProt P43723 1-96); experiment: ELISA, antigen coated
T1 construct: also called IHF (Hi); H. influenzae; not shown: poly-histidine tag
T1 sequence: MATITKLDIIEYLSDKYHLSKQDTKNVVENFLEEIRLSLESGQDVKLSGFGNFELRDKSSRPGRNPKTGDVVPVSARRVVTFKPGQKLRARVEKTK

[2] = target: T2, IHF from Acinetobacter baumannii (Acinetobacter baumannii, UniProt A3M2B0 1-98); experiment: ELISA, antigen coated
T2 construct: also called Ab
T2 sequence: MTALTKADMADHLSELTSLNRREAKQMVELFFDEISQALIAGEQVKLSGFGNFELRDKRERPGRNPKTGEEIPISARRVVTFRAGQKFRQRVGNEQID

[3] = target: T3, IHF from Klebsiella pneumoniae (Klebsiella pneumoniae, UniProt A6TAI1 1-99); experiment: ELISA, antigen coated
T3 construct: also called IHF (Kp); K. pneumoniae
T3 sequence: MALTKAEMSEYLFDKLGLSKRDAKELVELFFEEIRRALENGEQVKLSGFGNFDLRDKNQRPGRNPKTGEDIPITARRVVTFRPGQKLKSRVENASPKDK

[4] = target: T4, IHF from Pseudomonas aeruginosa (Pseudomonas aeruginosa, UniProt Q51472 2-100); experiment: ELISA, antigen coated
T4 construct: also called IHF (Pa); P. aeruginosa; not shown: poly-histidine tag
T4 sequence: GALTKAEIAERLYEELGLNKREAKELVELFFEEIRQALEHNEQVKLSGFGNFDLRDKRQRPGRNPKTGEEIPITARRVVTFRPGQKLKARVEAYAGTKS

[5] = target: T1, IHF from Haemophilus influenzae; experiment: ELISA
[6] = target: T3, IHF from Klebsiella pneumoniae; experiment: ELISA
[7] = target: T4, IHF from Pseudomonas aeruginosa; experiment: ELISA
[8] = target: T5, IHF from Staphylococcus aureus (Staphylococcus aureus, UniProt Q5HFV0 1-90); experiment: ELISA
T5 construct: also called IHF (Sa); HU; not shown: poly-histidine tag
T5 sequence: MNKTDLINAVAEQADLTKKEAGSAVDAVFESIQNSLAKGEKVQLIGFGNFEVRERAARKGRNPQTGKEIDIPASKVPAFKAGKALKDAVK

[9] = target: T2, IHF from Acinetobacter baumannii; experiment: ELISA, antigen coated, half-maximal binding concentration printed as Affinity (pM)
[10] = target: T5, IHF from Staphylococcus aureus; experiment: as above
[11] = target: peptide 26 of the set of overlapping 15-mer peptides from the IHF of Staphylococcus aureus (Staphylococcus aureus); experiment: peptide binding on streptavidin plates
[12] = target: peptide 20 of the set of overlapping 15-mer peptides from the IHF of Staphylococcus aureus (Staphylococcus aureus); experiment: peptide binding on streptavidin plates
[13] = target: peptide 19 of the set of overlapping 15-mer peptides from the IHF of Staphylococcus aureus (Staphylococcus aureus); experiment: peptide binding on streptavidin plates
[14] = target: IHF target of the pH table of Example 7 (homolog not stated); experiment: pH dependence of binding, pH 6.5; ELISA per legend of FIGS. 6A-6B
[15] = target: T1, IHF from Haemophilus influenzae; experiment: ELISA, antigen coated, half-maximal binding concentration printed as Affinity (pM)
[16] = target: T3, IHF from Klebsiella pneumoniae; experiment: as above
[17] = target: T4, IHF from Pseudomonas aeruginosa; experiment: as above
[18] = target: IHF target of the pH table of Example 7 (homolog not stated); experiment: pH dependence of binding, pH 4.5; ELISA per legend of FIGS. 6A-6B
[19] = target: T1, IHF from Haemophilus influenzae; experiment: BLI, ForteBio Octet QK, ratio of on and off rates
[20] = target: T3, IHF from Klebsiella pneumoniae; experiment: BLI, ForteBio Octet QK, ratio of on and off rates
[21] = target: T4, IHF from Pseudomonas aeruginosa; experiment: BLI, ForteBio Octet QK, ratio of on and off rates
[22] = target: T5, IHF from Staphylococcus aureus; experiment: BLI, ForteBio Octet QK, ratio of on and off rates
[23] = target: IHF target of the pH table of Example 7 (homolog not stated); experiment: pH dependence of binding, pH 5.5; ELISA per legend of FIGS. 6A-6B
[24] = target: IHF target of the pH table of Example 7 (homolog not stated); experiment: pH dependence of binding, pH 7.5; ELISA per legend of FIGS. 6A-6B
[25] = target: IHF target of the pH table of Example 7 (homolog not stated); experiment: pH dependence of binding, pH 3.5; ELISA per legend of FIGS. 6A-6B
[26] = target: IHF target of the pH table of Example 7 (homolog not stated); experiment: pH dependence of binding, pH 2.5; ELISA per legend of FIGS. 6A-6B

B1: TRL1337 (antibody, V domains shown)
VH: QVQLLESGPGLVKPSETPSLTCTVSGGSIRSYYWSWIRQPPGKGLEWIGYIYYSGSTNYNPSLKSRVTISVDMSKNQFSLKLSSVTAADTAMYYCARVYGGSGSYDFDYWGQGTLVTVSS
VL: DIVLTQSPSASGSPGQSVTISCTGTSSDVGGYNYVSWYQQLPGKAPKLMIYEVTKRPSGVPDRFSGSKSGNTASLTVSGLQAEDEADYYCSSFAGSNNHVVFGGGTKLTVL
binding result [1]: no binding
binding result [2]: no binding
binding result [3]: no binding
binding result [4]: no binding

B2: TRL1232 (antibody, V domains shown)
VH: QVQLVESGAEVKKPGALVKVSCKASGYTFSGYYMHWVRQAPGQGLEWMGWINPKSGGTKYAQKFQGRVTMTRDTSISTAYMELSRLRSDDTAVYFCARGGPSNLERFLERLQPRYSYDDKYAMDVWGQGTTVTVSS
VL: DIVMTQSPGTLSLSPGARATLSCRASQSVSSIYLAWYQQKPGQAPRLLIFGASSRATGIPDRFSGSGSGTDFTLTISRLEPEDFAVYYCQQYGSSPYTFGQGTKLEIKR
OD [5]: 0.1 OD
OD [6]: 0.1 OD
OD [7]: 0.2 OD
OD [8]: 0.2 OD

B3: TRL1070 (antibody, V domains shown)
VH: QVQLVQSGGTLVQPGGSLRLSCAASGFTFSYYSMSWVRQAPGKGLEWVANIKHDGTERNYVDSVKGRFTISRDNSEKSLYLQMNSLRAEDTAVYYCAKYYYGAGTNYPLKYWGQGTRVTVSS
VL: DILMTQSPSSLSASVGDRVTITCRASQGIRNDLGWYQQKPGKAPKLLIYAASSLQSGVPSRFSGSGSGTDFTLTISSLQPEDFATYYCLQDYNYPLTFGGGTKVEIKR
OD [5]: 0.11 OD
OD [8]: 0.3 OD

B4: TRL1087 (antibody, V domains shown)
VH: QVQLLESGPGLVRPSDTLSLTCTFSADLSTNAYWTWIRQPPGKGLEWIGYMSHSGGRDYNPSFNRRVTISVDTSKNQVFLRLTSVTSADTAVYFCVREVGSYYDYWGQGILVTVSS
VL: DIEMTQSPSSLSASVGDRITITCRASQGISTWLAWYQQKPGKAPKSLIFSTSSLHSGVPSKFSGSGSGTDFTLTITNLQPEDFATYYCQQKWETPYSFGQGTKLDMIR
OD [5]: 0.06 OD
OD [6]: 0.06 OD
OD [7]: 0.06 OD
OD [8]: 0.14 OD

B5: TRL1216 (antibody, V domains shown)
VH: QVQLVESGGGVVQPGGSLRVSCAASAFSFRDYGIHWVRQAPGKGLQWVAVISHDGGKKFYADSVRGRFTISRDNSENTLYLQMNSLRSDDTAVYYCARLVASCSGSTCTTQPAAFDIWGPGTLVTVSS
VL: DIMLTQPPSVSVSPGQTARITCSGDALPKKYTYWYQQKSGQAPVLLIYEDRKRPSEIPERFSAFTSWTTATLTITGAQVRDEADYYCYSTDISGDIGVFGGGTKLTVL
OD [5]: 0.06 OD
OD [8]: 0.5 OD

B6: TRL1215 (antibody, V domains shown)
VH: QVQLVESGTEVKNPGASVKVSCTASGYKFDEYGVSWVRQSPGQGLEWMGWISVYNGKTNYSQNFQGRLTLTTETSTDTAYMELTSLRPDDTAVYYCATDKNWFDPWGPGTLVTVSS
VL: DIVMTQSPSASGSPGQSITISCTGTNTDYNYVSWYQHHPGKAPKVIIYDVKKRPSGVPSRFSGSRSGNTATLTVSGLQTEDEADYYCVSYADNNHYVFGSGTKVTVL
OD [8]: 1.4 OD

B7: TRL1330 (antibody, V domains shown)
VH: QVQLVESGTEVKNPGASVKVSCTASGYKFDEYGVSWVRQSPGQGLEWMGWISVYNGKTNYSQNFQGRLTLTTETSTDTAYMELTSLRPDDTAVYYCATDKNWFDPWGPGTLVTVSS
VL: DIVLTQSPSASGSPGQSITISCTGTNTDYNYVSWYQHHPGKAPKVIIYDVKKRPSGVPSRFSGSRSGNTATLTVSGLQTEDEADYYCVSYADNNHYVFGSGTKVTVL
EC50 [9]: 0.017 nM
EC50 [10]: 0.023 nM

B8: TRL1230 (antibody, V domains shown)
VH: QVQLVQSGGGLVKPGGSLRLSCGASGFNLSSYSMNWVRQAPGKGLEWVSSISSRSSYIYYADSVQGRFTISRDNAKNSLYLQMNSLRAEDTAIYYCARVSPSTYYYYGMDVWGQGTTVTVSS
VL: DIVLTQPSSVSVSPGQTARITCSGDELPKQYAYWYQQKPGQAPVLVIYKDNERPSGIPERFSGSSSGTTVTLTISGVQAEDEADYYCQSADSSGTYVVFGGGTKLTVL
OD [5]: 0.06 OD
OD [6]: 0.07 OD
OD [7]: 0.3 OD
OD [8]: 0.1 OD

B9: TRL1218 (antibody, V domains shown)
VH: QVQLLESGADMVQPGRSLRLSCAASGFNFRTYAMHWVRQAPGKGLEWVAVMSHDGYTKYYSDSVRGQFTISRDNSKNTLYLQMNNLRPDDTAIYYCARGLTGLSVGFDYWGQGTLVTVSS
VL: DIVLTQSASVSGSPGQSITISCTGTSSDVGGYNYVSWYQQHPGKAPKLMIYDVTTRPSGVSDRFSGSKSGNTASLTISGLQAEDEADYYCSSYSSGSTPALFGGGTQLTVL
OD [5]: 0.04 OD
OD [6]: 0.06 OD
OD [7]: 0.09 OD

B10: TRL1335 (antibody, V domains shown)
VH: QVQLVESGAEVKKPGESLKISCKGSGYNFTSYWIGWVRQMPGKGLEWMGVIYPDDSDTRYSPSFKGQVTISADKSISTAFLQWSSLKASDTAVYHCARPPDSWGQGTLVTVSS
VL: DIVMTQSPATLSVSPGERATLSCRASQSVSSNLAWYQQKPGLAPRLLIVGASNRATGIPARFSGSGSGTEFTLTISSLQSEDFAFYYCQQYNNWPFTFGPGTKVDVKR
binding result [11]: no binding
binding result [12]: no binding
binding result [13]: no binding

B11: TRL1068 (antibody, V domains shown)
VH: QVQLVESGPGLVKPSETLSLTCRVSGDSNRPSYWSWIRQAPGKAMEWIGYVYDSGVTIYNPSLKGRVTISLDTSKTRFSLKLTSVIAADTAVYYCARERFDRTSYKSWWGQGTQVTVSS
VL: DIVLTQAPGTLSLSPGDRATLSCRASQRLGGTSLAWYQHRSGQAPRLILYGTSNRATDTPDRFSGSGSGTDFVLTISSLEPEDFAVYYCQQYGSPPYTFGQGTTLDIK
Kd [14]: 0.0076 nM
EC50 [15]: 5 nM
EC50 [9]: 0.01 nM
EC50 [16]: 0.011 nM
EC50 [17]: 0.011 nM
EC50 [10]: 0.015 nM
Kd [18]: 0.0236 nM
Kd [19]: 350 nM
Kd [20]: 7 nM
Kd [21]: 1 nM
Kd [22]: 1 nM
Kd [23]: 0.009 nM
Kd [24]: 0.007 nM
Kd [25]: 1.2 nM
Kd [26]: 2.7 nM
